# Assay: yeast display, Sf9 membrane polyspecificity reagent, FACS + sequencing; frameworks hold sequencing errors
# Summary of the method: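 Nanobodies from a synthetic yeast display library (Saccharomyces cerevisiae BJ5465), induced 36–48 hours with galactose, were stained 1 hour at 4 °C with 10% biotinylated, detergent-solubilized Sf9 membrane reagent, enriched on streptavidin microbeads, then FACS-sorted. Anti-HA (expression) and streptavidin (reagent binding) fluorescence set low and high (top ~1%) gates. Polyreactivity labels come from the gate of origin. Genes were colony-PCR amplified, MiSeq 2 × 250 sequenced and filtered by CDR length.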
row,Sequence,polyreactivity (PSR sort gate)
1,QVQLVESGGGLVQAGGSLRLSCAASGRIFYYYAMGWYRQAPGKEREFVAAISGSGGTTYYADSVKGRFTISLDNAKNTVYLQMNSLKPEDTAVYYCNAKAVRGRYVWFDYWGQGTQVTVSS,high polyreactivity
2,QVQLVESGGGLVQAGGSLRLSCAASGRIFYYYAMGWYRQAPGKERELVAAINRSGGSTYYADSVKGRFTISRDNAKNTVYLQKNSLKPEDTAVYYCASYDYWGQGSQVTVSS,high polyreactivity
3,QVQLVESGGGLVQAGGSLRLSCAASGRIFYYYAMGWYRQAPGKERELVAAISGGGGSTYYADSVKGRFTISRDNAKNTVYLQMNSLKPEDTAVYYCAAEGAKDYTVSYDYWGQGTQVTVSS,high polyreactivity
4,QVQLVESGGGLVQAGGSLRLSCAASGRIFYYYAMGWYRQAPGKERELVAAISQRGGRTYYADSVKGRFTISRDIAKNTVYLQMNSLIPEDTAVYYCNAYPVYGRYTHYGYGHWGQGTKVTVSS,high polyreactivity
5,QVQLVESGGGLVQAGGSLRLSCAASGRIFYYYAMGWYRQAPGKERELVAGISSGSSTNYADSVKGRFTISRDNAKNTVYLQMNSLKPEDTAVYYCAAYPYFSVAANDDYWGQGTQVTVSS,low polyreactivity
6,QVQLVESGGGLVQAGGSLRLSCAASGRIFYYYAMGWYRQAPGKERELVASINSVGTTTYADSVKGRVTISRDNAKNTVYLQMNSLKPEDTAVYYCARDTGSIYYDGYEYDYWGQGTQVTVSS,low polyreactivity
7,QVQLVESGGGLVQAGGSLRLSCAASGRIFYYYAMGWYRQAPGKERELVATITTSGKTYYADSVKGRFTISRDNAKNTVYLQMNSLKPEDTAVYYCNAGWDLVYGYYPRRKNFDYWGQGTKVTVSS,high polyreactivity
8,QVQLVESGGGLVQAGGSLRLSCAASGRIFYYYAMGWYRQAPRKERELVAAISWSDDSTYYADSVKGRFTISRDNAKNTVYLQMNSLKPEDTAVYYCAADSIHYQFDYWGQGTQVTVSS,low polyreactivity
9,QVQLVESGGGLVQAGGSLRLSCAASGRIFYYYAMGWYRQAPVKERELVAAISQRGGRTYYADSVKVRFTISRDNAKNTVYLQMNSLKPEDTAVYYCNAYPVYGRYTHYGYGHWGQGTQVTVSS,high polyreactivity
10,QVQLVESGGGLVQAGGSLRLSCAASGRIFYYYAMVWYRQAPGKERELVAAITRRGGSTYYADSVKGRFTISRDNAMNTVYLLMNSLKPEDTAVYYCAKPVRTGWLDGDYWGQGTQVTVSS,low polyreactivity
11,QVQLVESGGGLVQAGGSLRLSCAASGRIFYYYGMGWYRQAPGKEREFVAAISLGGARTYYADSVKGRFTISRDNAKNTVYLQMNSLKPEDTAVYDCYARGIGRSTKWSSRDYWGQGTQVTVSS,high polyreactivity
12,QVQLVESGGGLVQAGGSLRLSCAASGRIFYYYMAWYRHAPGKERELVAAITRGGGTYADSVKGRFTISRDNAKNTVYLQMNSLKPEDTAVYYCAAYPRGARRLDYWGQGTQVTVSS,high polyreactivity
13,QVQLVESGGGLVQAGGSLRLSCAASGRIFYYYTMGWYRQAPGKERELVARINSSGSTNLRRLCEGALHNFTRQCEEYRLFTDEQPETGRYRVYYCNADTKRSSREYDYWGQGTQVTVSS,low polyreactivity
14,QVQLVESGGGLVQAGGSLRLSCAASGRIGVYAMGWYRQAPGKERELVAAIRRSGGNTYYADSVKGRFTISRDNAKNTVYLQMNSLKPEDTAVYYCAAGRPYRFYPRYDYWGQGTQVTVSS,high polyreactivity
15,QVQLVESGGGLVQAGGSLRLSCAASGRIIADNAMGWYRQAPGKERELVATISSGGSTSYADSVKGRFTISRDNAKNTVYLQMNSLKPDDTAVYYCATPYTGPSRPYDYWGQGTQVTVSS,low polyreactivity
16,QVQLVESGGGLVQAGGSLRLSCAASGRIIAWNDMGWYRQAPGKERELVAAIRWSSGTTYYADSVKGRFTISRDNAKNTVYLQINSLKPEDTAVYYCAAGGHARTWYAYYYWGQGTQVTVSS,low polyreactivity
17,QVQLVESGGGLVQAGGSLRLSCAASGRIIDIYAMGWYRQAPGKERELVAAITSGGSTYYADSVKGRFTISRDNAKNTVYLQMNSLKPEDTAVYYCAARLFADYWGQGTQVTVSS,low polyreactivity
18,QVQLVESGGGLVQAGGSLRLSCAASGRIIFTNAMGWYRQARGKERELVASISRGGVRTYYADSVKGRFTISRDNAKNTVYLQMNSLKPEDTAVYYCDKGYHLVLPPLPQYDYWGQGTQVTVSS,low polyreactivity
19,QVQLVESGGGLVQAGGSLRLSCAASGRIIGFNAMGWYRQAPGKERELVASIRTTGGSTRYADSVKGRFTISRDNAKNTVYLQMNSLIPEDTAVYYCAARWGKTLWQYNYWGQGTQVTVSS,high polyreactivity
20,QVQLVESGGGLVQAGGSLRLSCAASGRIIGIKAMGWYRLAPGKEMELVATITSGGDTNYADSVKGRFTISRDNAKNTVYIQMNSLKPEDTAVYYCNAESYGLGIGYEYWGQGTQVTVSS,low polyreactivity
21,QVQLVESGGGLVQAGGSLRLSCAASGRIIGLYTMGWYRQAPGKERELVARITSGDRTYYADSVKGRFTISRDNAKNTVYLQMNSLKPEDTAVYYCAAEFTYRYDYWGQGTQVTVSS,high polyreactivity
22,QVQLVESGGGLVQAGGSLRLSCAASGRIIGRYVMGWYRQAPGKERELVAAITRGGSTNYADSVKGRFTISRDNAKNTVYLQMNSLKPEDTAVYYCARAYSTVNRYSMYYWGQGTQVTVSS,high polyreactivity

row,Sequence,polyreactivity (PSR sort gate)
1,QVQLVESGGGLVQAGGSLRLSCAASGRIIGSNTMGWYRQAPGKEREFVATISSSGGSTYYADSVKGRFTISRDNAKNTVYLQMNSLKPEDTSVYYCAAPWSSGSRGGYDYWGQGTQVTVSS,high polyreactivity
2,QVQLVESGGGLVQAGGSLRLSCAASGRIIGTYAMGWYRQAPGKERELVAAITARTSSTYYADSVKGRFTISRDNAKNTVYLQMNSLKPEDTAVYYCARTGSYRPSFRYDYWGQGTQVTVSS,high polyreactivity
3,QVQLVESGGGLVQAGGSLRLSCAASGRIIGWYAMGWYRQAPGKERELVAAISQDATRTYYADSVTGRFTISRDHAKNTVYLQMLRLKPEDTAVYNCNVVYRYAGWSYDSWGQGTQVTVSS,high polyreactivity
4,QVQLVESGGGLVQAGGSLRLSCAASGRIIGYYAMGWYRQAPGKERELVAAITSGGRTNYADSVKGRFTISRDNAKNTVYLQMNSLKPEDTAVYYCAKEYPRYSSPYDYWGQGTQVTVSS,low polyreactivity
5,QVQLVESGGGLVQAGGSLRLSCAASGRIIGYYAMGWYRQAPGKERELVAAITSSGSRTYYADSVKGRFTISRDNAKNTVYLQMNSLKPEDTAVYYCATTKVYYSSKSSYYYWGQGTQVTVSS,high polyreactivity
6,QVQLVESGGGLVQAGGSLRLSCAASGRIIGYYTMGWYSQAPGKERELVAAITSGGRTYYADSVKGRFTISRDNAKNTVYLQMNSLKPEDTAVYYCAADWYYRSDYWGQGTQVTVSS,low polyreactivity
7,QVQLVESGGGLVQAGGSLRLSCAASGRIIGYYVMGWYRQAPGKERELVAAISSRTGTTYYADSVKGRFTISRDYAKNTVYLQMNRLKPEDTAVYYCNARELTTYWSFDYHHSEYDYWGQGTQVTVSS,high polyreactivity
8,QVQLVESGGGLVQAGGSLRLSCAASGRIIKFYAMGWNRQAPGKERELVAVIRSVTRTKYADSVKGRFTISRDNAKNTVYLQLNSLKPEDTAVYYCAAREVGKMDYWGQGTQVTVSS,low polyreactivity
9,QVQLVESGGGLVQAGGSLRLSCAASGRIIKYYTMGWYRQAPGKERELVAAISRGGTTNYADSVKGRFTISRDNAKNTVYLQMNSLKPEDTAVYYCNAVGFYAANTFDYWGQGTQVTVSS,high polyreactivity
10,QVQLVESGGGLVQAGGSLRLSCAASGRIIPAYDMGWYRQAPGKERELVAAISQGAGGSTYYADSVKGRFTISRDNAKNTVYLQMISLKPEDTAVYSCAREGESGVVDTYGHVYVYEYDYWGQGTQVTVSS,low polyreactivity
11,QVQLVESGGGLVQAGGSLRLSCAASGRIIPSYAMGWYRQAPGKERELVAAISDSDGSTYYADSVKGRFTISRDNAKNTVYLQMNSLKPEDTAVYYCAAEGSYPAYDYWGQGTQVTVSS,low polyreactivity
12,QVQLVESGGGLVQAGGSLRLSCAASGRIIRTYSMGRYRQAPGKERELVAVISRRGGRTYYADSVKGRFTFSRDNAKNTVYVQINSLKPEDTAVYYCNADYSGGGGGYWGQGTLVTVSS,high polyreactivity
13,QVQLVESGGGLVQAGGSLRLSCAASGRIITAYAMGWYRQAPGKEREFVAAINVSGGSTYYADSVKGRFTISRDNAKNTVYLQMDSLKPEDSAVYYCNADYYYYDIYWWQMDYWGQGTQVTVSS,low polyreactivity
14,QVQLVESGGGLVQAGGSLRLSCAASGRIITAYYAMGWSRQAPGKERELVASISSSGTSTYADSVKGRFTISRDNAKNTVYLQMNSLKPEDTAVYYCATRKLRTRRYDYGYWGQGTQVTVSS,low polyreactivity
15,QVQLVESGGGLVQAGGSLRLSCAASGRIITGNAMGWYRQAPGKERELVATITRRGGSTYYADSVKGRFTISRDNAKNTVYLQMNSLKPEDTAVYYCAANRLFSYDKYGYWGQGTQVTVSS,high polyreactivity
16,QVQLVESGGGLVQAGGSLRLSCAASGRIITKYTMGWYRQAPGKERELVAAISRSDRTNYADSVKGRFTISRDNAKNTVYLQMNSLKPEDTAVYYCAAQFTVLWYEYYYWGQGTQVTVSS,high polyreactivity
17,QVQLVESGGGLVQAGGSLRLSCAASGRIIVHYAMGWYRQAPGKERELVAAISWSGGSTYYADSVKGRFTISRDIGNNTVYLQMNSLKPEDTAVYYCNALDPLYFRYDYWGQGTQVTVSS,low polyreactivity
18,QVQLVESGGGLVQAGGSLRLSCAASGRIIYNNAMGWSRQAPGTERELVAAISIGGITYYADSVKGRFTISRDNAKNTVYLQMNSLKPEDTAVYYCAALNTGYRTRRLGRDYWGQGTQVTVSS,low polyreactivity
19,QVQLVESGGGLVQAGGSLRLSCAASGRIIYRYAMGWYRQAPGKERELVATITWSTTSTYHADSVKGRFTISRDNAKNTVYLQMNSLKPEDTAVYYCAASIIPGFRRDPFGYWGQGTQVTVSS,low polyreactivity
20,QVQLVESGGGLVQAGGSLRLSCAASGRIIYTNAMGWYRQAPGKERELVAAINRSGGITYYADSVKGRFTISRDNAKNTVYVQMNSLKPEDTAVYYCAKDSSWASYNHDYWGQGTQVTVSS,low polyreactivity
21,QVQLVESGGGLVQAGGSLRLSCAASGRIIYVYAMGWYRQAPGKERELVAAISDSGGSTYYADSVKGRFTISRDNAKNTVYLQMNSLKPEDTAVYYCAAEGYYSDYWGQGTQVTVSS,high polyreactivity

# Reference: the nanobody polyreactivity screen of Harvey et al. (2022)
